Assay results taken from PMC2791020.
pKd: −log10 of the molar value.

What was measured:
[1] = biological target: protein kinase A catalytic (C) subunit mutant K285P; experiment: SPR
[2] = biological target: protein kinase A catalytic (C) subunit, wild type (UniProt P05132); experiment: SPR

pKd [1]	koff [1]	kon [1]	pKd [2]	koff [2]	kon [2]	Substance
6.95	0.0123 s⁻¹	–	–	–	–	RIIβAB, truncated PKA regulatory subunit RIIβ (from UniProt P12369 108-402) (domain or fragment)
8.31	0.00443 s⁻¹	906000 M⁻¹ s⁻¹	9.05	0.000844 s⁻¹	919000 M⁻¹ s⁻¹	RIαAB, truncated RIα(91–379) containing both cAMP-binding domains (domain or fragment)
